Sequences and labels used below:
T1: Suc-AAPA-pNA
T1 chain: AAPA

T2: Suc-AAPD-pNA
T2 chain: AAPD

T3: Suc-AAPE-pNA
T3 chain: AAPE

T4: Suc-AAPF-pNA
T4 chain: AAPF

T5: Suc-AAPI-pNA
T5 chain: AAPI

T6: Suc-AAPK-pNA
T6 chain: AAPK

T7: Suc-AAPL-pNA
T7 chain: AAPL

T8: Suc-AAPM-pNA
T8 chain: AAPM

T9: Suc-AAPR-pNA
T9 chain: AAPR

T10: Suc-AAPV-pNA
T10 chain: AAPV

B1: Glutamyl endopeptidase blaSE from Bacillus licheniformis (protein)
chain: SVIGSDDRTRVTNTTAYPYRAIVHISSSIGSCTGWMIGPKTVATAGHCIYDTSSGSFAGTATVSPGRNGTSYPYGSVKSTRYFIPSGWRSGNTNYDYGAIELSEPIGNTVGYFGYSYTTSSLVGTTVTISGYPGDKTAGTQWQHSGPIAISETYKLQYAMDTYGGQSGSPVFEQSSSRTNCSGPCSLAVHTNGVYGGSSYNRGTRITKEVFDNLTNWKNSAQ
B2: Serine protease from Nocardiopsis sp NRRL 18262 (protein)
chain: ADIIGGLAYTMGGRCSVGFAATNAAGQPGFVTAGHCGRVGTQVTIGNGRGVFEQSVFPGNDAAFVRGTSNFTLTNLVSRYNTGGYATVAGHNQAPIGSSVCRSGSTTGWHCGTIQARGQSVSYPEGTVTNMTRTTVCAEPGDSGGSYISGTQAQGVTSGGSGNCRTGGTTFYQEVTPMVNSWGVRLRT
B3: Lysyl endopeptidase from Achromobacter lyticus (protein)
chain: GVSGSCNIDVVCPEGDGRRDIIRAVGAYSKSGTLACTGSLVNNTANDRKMYFLTAHHCGMGTASTAASIVVYWNYQNSTCRAPNTPASGANGDGSMSQTQSGSTVKATYATSDFTLLELNNAANPAFNLFWAGWDRRDQNYPGAIAIHHPNVAEKRISNSTSPTSFVAWGGGAGTTHLNVQWQPSGGVTEPGSSGSPIYSPEKRVLGQLHGGPSSCSATGTNRSDQYGRVFTSWTGGGAAASRLSDWLDPASTGAQFIDGLDSGGGTP
B4: Thermostable alkaline protease BH0855 from Bacillus halodurans (protein)
chain: QTVPWGISFINTQQAHNRGIFGNGARVAVLDTGIASHPDLRIAGGASFISSEPSYHDNNGHGTHVAGTIAALNNSIGVLGVAPSADLYAVKVLDRNGSGSLASVAQGIEWAINNNMHIINMSLGSTSGSSTLELAVNRANNAGILLVGAAGNTGRQGVNYPARYSGVMAVAAVDQNGQRASFSTYGPEIEISAPGVNVNSTYTGNRYVSLSGTSMATPHVAGVAALVKSRYPSYTNNQIRQRINQTATYLGSPSLYGNGLVHAGRATQ
B5: Trypsin from Fusarium oxysporum (protein)
chain: IVGGTSASAGDFPFIVSISRNGGPWCGGSLLNANTVLTAAHCVSGYAQSGFQIRAGSLSRTSGGITSSLSSVRVHPSYSGNNNDLAILKLSTSIPSGGNIGYARLAASGSDPVAGSSATVAGWGATSEGGSSTPVNLLKVTVPIVSRATCRAQYGTSAITNQMFCAGVSSGGKDSCQGDSGGPIVDSSNTLIGAVSWGNGCARPNYSGVYASVGALRSFIDTYA
B6: Serine protease bppB from Bacillus pumilus JA16 (protein)
chain: VVIGDDGRTKVTNTRVAPYNSIAYITFGGSSCTGTLIAPNKILTNGHCVYNTATRSYSAKGSVYPGMNDSTAVNGSANMTEFYVPSGYINTGASQYDFAVIKTDTNIGNTVGYRSIRQVTNLTGTTIKISGYPGDKMRSTGKVSQWEMSGPVTREDTNLAYYTIDTFSGNSGSAMLDQNQQIVGVHNAGYSNGTINGGPKATAAFVEFINYAKAQ
B7: Subtilisin Carlsberg from Bacillus licheniformis (protein)
chain: AQTVPYGIPLIKADKVQAQGFKGANVKVAVLDTGIQASHPDLNVVGGASFVAGEAYNTDGNGHGTHVAGTVAALDNTTGVLGVAPSVSLYAVKVLNSSGSGSYSGIVSGIEWATTNGMDVINMSLGGASGSTAMKQAVDNAYARGVVVVAAAGNSGSSGNTNTIGYPAKYDSVIAVGAVDSNSNRASFSSVGAELEVMAPGAGVYSTYPTNTYATLNGTSMASPHVAGAAALILSKHPNLSASQVRNRLSSTATYLGSSFYYGKGLINVEAAAQ
B8: Glutamyl endopeptidase II sprE from Streptomyces griseus (protein)
chain: VLGGGAIYGGGSRCSAAFNVTKGGARYFVTAGHCTNISANWSASSGGSVVGVREGTSFPTNDYGIVRYTDGSSPAGTVDLYNGSTQDISSAANAVVGQAIKKSGSTTKVTSGTVTAVNVTVNYGDGPVYNMVRTTACSAGGDSGGAHFAGSVALGIHSGSSGCSGTAGSAIHQPVTEALSAYGVTVY
B9: Subtilisin 309 variant from Bacillus clausii (protein)
chain: AQSVPWGIERVQAPAAHNRGLTGSGVKVAVLDTGISTHPDLRIRGGASFVPGEPSTQDGNGHGTHVAGTIAALDNSIGVLGVAPSEALYAVKVLGASGSGSVSSIAQGLEWAGNNGMHVANLSLGSPSPSATLEQAVNSATSRGVLVVAASGNSGAGSISYPARYANAMAVGATDQNNNRASFSQYGAGLDIVAPGVNILSTWPGSTYASLNGTSMATPHVAGAAALVKQKNPSWSNVQIRNHLKNTATSLGDTWEYGSGLVNAEAATR

A value given as a limit tells only on which side of the number the result lay.

In the first series the target is T1, Suc-AAPA-pNA. The following applies: scale: relative to the substrate with the highest activity.
B1: the relative activity (initial increase in OD405) was found to be 0.0001.
B2 displayed a relative activity (initial increase in OD405) of 0.0001.
Still for that read-out and setting: the result for B3 reads 0.0005; that for B4, 0.088.
On the same count and under the same terms, the result for B5 reads 0.
Same read-out and setting: with B6 the figure was 0; with B7, 0.0222.
Regarding B8, the relative activity (initial increase in OD405) was found to be 0.
The same measure, in the same setting: with B9 the figure was 0.0566.

The target in the next series is T2, Suc-AAPD-pNA. The conditions noted are these: scale: relative to the substrate with the highest activity.
Regarding B1, the relative activity (initial increase in OD405) worked out at 0.002.
Take B2: the relative activity (initial increase in OD405) came to 0.0028.
Protein B3 had a relative activity (initial increase in OD405) of 0.0006.
B4 displayed a relative activity (initial increase in OD405) of 0.0053.
As for B5, the relative activity (initial increase in OD405) is 0.
Consider B6, for which the relative activity (initial increase in OD405) was 0.0043.
With B7, the relative activity (initial increase in OD405) came to 0.0008.
Still for that read-out and setting: the result for B8 reads 0.158; that for B9, 0.0001.

The next series has as its target T3, Suc-AAPE-pNA.
Details: not given
Regarding B1, the Glutamyl endopeptidase ratio (GR) came to 309.
With B2, the Glutamyl endopeptidase ratio (GR) was less than 0.001.
Turning to B3, the Glutamyl endopeptidase ratio (GR) was less than 0.001.
In the case of B4, the Glutamyl endopeptidase ratio (GR) came to 0.008.
Turning to B5, the Glutamyl endopeptidase ratio (GR) is less than 0.001.
Turning to B6, the Glutamyl endopeptidase ratio (GR) is 234.
With B7, the Glutamyl endopeptidase ratio (GR) came to 0.003.
In the case of B8, the Glutamyl endopeptidase ratio (GR) came to 6.
Regarding B9, the Glutamyl endopeptidase ratio (GR) was 0.003.

The same series, now with this note: scale: relative to the substrate with the highest activity.
With B1, the relative activity (initial increase in OD405) was determined as 1.
B2 had a relative activity (initial increase in OD405) of 0.0004.
On to B3, for which the relative activity (initial increase in OD405) was 0.
Still for that read-out and setting: with B4 the figure was 0.0083.
On the same count and under the same terms, the result for B5 reads 0.0001; that for B6, 1.
Consider B7, for which the relative activity (initial increase in OD405) came out at 0.0033.
The protein B8 had a relative activity (initial increase in OD405) of 1.
With B9, the relative activity (initial increase in OD405) came out at 0.0025.

The next series has as its target T4, Suc-AAPF-pNA. The conditions noted are these: scale: relative to the substrate with the highest activity.
B1: the relative activity (initial increase in OD405) was 0.0032.
The protein B2 registered a relative activity (initial increase in OD405) of 1.
The protein B3 had a relative activity (initial increase in OD405) of 0.0041.
B4 returned a relative activity (initial increase in OD405) of 0.59.
On to B5, for which the relative activity (initial increase in OD405) came to 0.0001.
Turning to B6, the relative activity (initial increase in OD405) was determined as 0.
B7 returned a relative activity (initial increase in OD405) of 1.
Consider B8, for which the relative activity (initial increase in OD405) came to 0.
Protein B9 registered a relative activity (initial increase in OD405) of 1.

The target in a further series is T5, Suc-AAPI-pNA. The following applies: scale: relative to the substrate with the highest activity.
The protein B1 displayed a relative activity (initial increase in OD405) of 0.
B2: the relative activity (initial increase in OD405) turned out to be 0.0004.
The protein B3 had a relative activity (initial increase in OD405) of 0.0017.
Consider B4, for which the relative activity (initial increase in OD405) is 0.0005.
B5 had a relative activity (initial increase in OD405) of 0.
For the protein B6, the relative activity (initial increase in OD405) is 0.
B7 showed a relative activity (initial increase in OD405) of 0.0005.
Protein B8 came in with a relative activity (initial increase in OD405) of 0.
Take B9: the relative activity (initial increase in OD405) came out at 0.0003.

The target in a further series is T6, Suc-AAPK-pNA. The following applies: scale: relative to the substrate with the highest activity.
For the protein B1, the relative activity (initial increase in OD405) was determined as 0.0001.
B2: the relative activity (initial increase in OD405) was 0.0778.
On to B3, for which the relative activity (initial increase in OD405) was found to be 1.
On the same count and under the same terms, with B4 the figure was 0.0038; with B5, 0.84.
As to B6, the relative activity (initial increase in OD405) was 0.0003.
In turn, B7 displayed a relative activity (initial increase in OD405) of 0.0155.
Same read-out and setting: with B8 the figure was 0.
In turn, B9 came in with a relative activity (initial increase in OD405) of 0.0011.

The next series has as its target T7, Suc-AAPL-pNA. The conditions noted are these: scale: relative to the substrate with the highest activity.
As to B1, the relative activity (initial increase in OD405) came to 0.0027.
In turn, B2 returned a relative activity (initial increase in OD405) of 0.185.
Same read-out and setting: with B3 the figure was 0.0019; with B4, 1.
B5 registered a relative activity (initial increase in OD405) of 0.
The protein B6 displayed a relative activity (initial increase in OD405) of 0.0005.
In the case of B7, the relative activity (initial increase in OD405) was 0.807.
The same measure, in the same setting: with B8 the figure was 0; with B9, 0.17.

For the next series, the target named is T8, Suc-AAPM-pNA. The following applies: scale: relative to the substrate with the highest activity.
With B1, the relative activity (initial increase in OD405) came out at 0.0008.
The same measure, in the same setting: with B2 the figure was 0.0003; with B3, 0; with B4, 0.85.
The protein B5 had a relative activity (initial increase in OD405) of 0.
For B6, the relative activity (initial increase in OD405) stood at 0.
The protein B7 displayed a relative activity (initial increase in OD405) of 0.282.
As for B8, the relative activity (initial increase in OD405) came to 0.0001.
Turning to B9, the relative activity (initial increase in OD405) turned out to be 0.861.

Another series addresses T9, Suc-AAPR-pNA. The conditions noted are these: scale: relative to the substrate with the highest activity.
Take B1: the relative activity (initial increase in OD405) turned out to be 0.0001.
B2 gave a relative activity (initial increase in OD405) of 0.172.
B3: the relative activity (initial increase in OD405) was 0.0005.
In turn, B4 gave a relative activity (initial increase in OD405) of 0.0069.
As for B5, the relative activity (initial increase in OD405) amounted to 1.
The protein B6 had a relative activity (initial increase in OD405) of 0.
Consider B7, for which the relative activity (initial increase in OD405) was found to be 0.019.
Protein B8 came in with a relative activity (initial increase in OD405) of 0.0001.
Same read-out and setting: with B9 the figure was 0.0002.

A further series has as its target T10, Suc-AAPV-pNA. The conditions noted are these: scale: relative to the substrate with the highest activity.
For the protein B1, the relative activity (initial increase in OD405) came to 0.0001.
Consider B2, for which the relative activity (initial increase in OD405) was 0.0121.
The same measure, in the same setting: with B3 the figure was 0.0007.
Turning to B4, the relative activity (initial increase in OD405) is 0.0008.
The same measure, in the same setting: with B5 the figure was 0; with B6, 0.
Take B7: the relative activity (initial increase in OD405) was found to be 0.0007.
In turn, B8 registered a relative activity (initial increase in OD405) of 0.
On the same count and under the same terms, the result for B9 reads 0.0001.

The target in another series is type II (60-70 kDa) keratins of the ORS.
Details: not given
On to B1, for which the “hydrolysis of ORS tissue protein, SDS-PAGE with Coomassie Blue” value is 5 ppm HZ-2 fully degraded type I and type II during the experiment.

The record behind these values is patent US20230240966.
